According to patent US20120324602A1:
Each block holds one substance with its values, some of them ahead of it.

Legend:
[1] = molecular target: BSH (Arabidopsis thaliana); experiment: TAP-MS, N-terminal GS tag
[2] = molecular target: CHR12 (Arabidopsis thaliana); experiment: TAP-MS, N-terminal GS tag
[3] = molecular target: CKA2 (casein kinase II alpha chain 2) (Arabidopsis thaliana); experiment: TAP-MS, N-terminal GS tag
[4] = molecular target: CRU1 (CRUCIFERINA) (Arabidopsis thaliana); experiment: TAP-MS, N-terminal GS tag
[5] = molecular target: CRU3 (CRUCIFERIN 3) (Arabidopsis thaliana); experiment: TAP-MS, N-terminal GS tag
[6] = molecular target: DNA-binding bromodomain-containing protein (AT1G20670) (Arabidopsis thaliana); experiment: TAP-MS, N-terminal GS tag
[7] = molecular target: DNA-binding bromodomain-containing protein, similar to At1g20670 (AT5G55040) (Arabidopsis thaliana); experiment: TAP-MS, N-terminal GS tag
[8] = molecular target: LFR (armadillo-repeat protein) (Arabidopsis thaliana); experiment: TAP-MS, N-terminal GS tag
[9] = molecular target: RD21 (RESPONSIVE TO …ON 21) (Arabidopsis thaliana); experiment: TAP-MS, N-terminal GS tag
[10] = molecular target: SNF2 protein (BRM) (Arabidopsis thaliana); experiment: TAP-MS, N-terminal GS tag
[11] = molecular target: SWI3A (Arabidopsis thaliana); experiment: TAP-MS, N-terminal GS tag
[12] = molecular target: SWI3B (Arabidopsis thaliana); experiment: TAP-MS, N-terminal GS tag
[13] = molecular target: SWI3D (Arabidopsis thaliana); experiment: TAP-MS, N-terminal GS tag
[14] = molecular target: T1, SWIRM domain-containing protein (SWI3C) (Arabidopsis thaliana); experiment: TAP-MS, N-terminal GS tag
T1 sequence (Q9XI07 1-807, looked up): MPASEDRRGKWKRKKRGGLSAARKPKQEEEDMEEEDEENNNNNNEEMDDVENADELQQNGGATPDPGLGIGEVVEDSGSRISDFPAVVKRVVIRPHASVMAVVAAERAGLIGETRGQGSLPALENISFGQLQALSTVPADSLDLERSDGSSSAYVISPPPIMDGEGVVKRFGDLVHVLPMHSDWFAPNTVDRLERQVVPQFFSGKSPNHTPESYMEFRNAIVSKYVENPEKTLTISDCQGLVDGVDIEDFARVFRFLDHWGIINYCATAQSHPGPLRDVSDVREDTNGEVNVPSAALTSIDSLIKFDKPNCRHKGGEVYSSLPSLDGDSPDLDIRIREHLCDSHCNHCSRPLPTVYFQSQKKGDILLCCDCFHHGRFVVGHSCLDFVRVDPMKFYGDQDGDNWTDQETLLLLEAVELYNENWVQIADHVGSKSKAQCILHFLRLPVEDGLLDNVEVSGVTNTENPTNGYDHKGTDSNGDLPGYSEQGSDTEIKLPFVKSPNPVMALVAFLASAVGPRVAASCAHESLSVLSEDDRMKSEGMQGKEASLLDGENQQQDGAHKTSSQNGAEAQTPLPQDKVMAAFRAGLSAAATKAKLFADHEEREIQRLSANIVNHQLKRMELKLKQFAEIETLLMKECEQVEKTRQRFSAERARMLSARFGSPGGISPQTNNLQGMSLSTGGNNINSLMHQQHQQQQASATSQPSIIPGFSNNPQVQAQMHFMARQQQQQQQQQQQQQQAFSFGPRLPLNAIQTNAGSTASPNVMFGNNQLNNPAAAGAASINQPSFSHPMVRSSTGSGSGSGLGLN

[15] = molecular target: T2, actin-related protein 4 (ARP4) (Arabidopsis thaliana); experiment: TAP-MS, N-terminal GS tag
T2 sequence (Q84M92 1-441, looked up): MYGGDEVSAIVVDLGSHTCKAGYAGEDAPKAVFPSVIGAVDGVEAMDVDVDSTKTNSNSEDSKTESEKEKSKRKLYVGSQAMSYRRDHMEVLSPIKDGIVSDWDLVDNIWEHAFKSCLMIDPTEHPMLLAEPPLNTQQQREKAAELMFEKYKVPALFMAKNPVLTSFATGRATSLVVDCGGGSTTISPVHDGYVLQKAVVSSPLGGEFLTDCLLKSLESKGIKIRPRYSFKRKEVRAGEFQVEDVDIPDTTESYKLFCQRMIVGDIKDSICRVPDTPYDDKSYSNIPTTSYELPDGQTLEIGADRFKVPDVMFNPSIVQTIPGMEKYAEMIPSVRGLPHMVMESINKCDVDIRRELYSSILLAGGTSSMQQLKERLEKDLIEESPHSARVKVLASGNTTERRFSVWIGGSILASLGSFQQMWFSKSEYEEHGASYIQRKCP

[16] = molecular target: T3, actin-related protein 7 (ARP7) (Arabidopsis thaliana); experiment: TAP-MS, N-terminal GS tag
T3 sequence (Q8L4Y5 1-363, looked up): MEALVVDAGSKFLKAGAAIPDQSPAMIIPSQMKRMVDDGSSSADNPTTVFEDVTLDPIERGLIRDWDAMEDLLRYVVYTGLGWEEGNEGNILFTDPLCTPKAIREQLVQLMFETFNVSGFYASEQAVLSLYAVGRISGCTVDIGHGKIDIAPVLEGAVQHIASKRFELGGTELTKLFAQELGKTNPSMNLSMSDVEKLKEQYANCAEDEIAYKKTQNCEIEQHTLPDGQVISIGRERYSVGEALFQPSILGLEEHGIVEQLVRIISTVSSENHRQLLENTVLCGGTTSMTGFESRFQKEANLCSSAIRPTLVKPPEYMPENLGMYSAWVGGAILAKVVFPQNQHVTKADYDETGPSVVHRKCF

[17] = molecular target: electron carrier (AT1G32730) (Arabidopsis thaliana); experiment: TAP-MS, N-terminal GS tag
[18] = molecular target: expressed protein, similar to At3g03460 (AT5G17510) (Arabidopsis thaliana); experiment: TAP-MS, N-terminal GS tag
[19] = molecular target: expressed protein, similar to At4g22320 (AT5G55210) (Arabidopsis thaliana); experiment: TAP-MS, N-terminal GS tag
[20] = molecular target: transcription factor (AT3G18380) (Arabidopsis thaliana); experiment: TAP-MS, N-terminal GS tag
[21] = molecular target: unknown protein (AT1G06500) (Arabidopsis thaliana); experiment: TAP-MS, N-terminal GS tag
[22] = molecular target: unknown, similar to At5g55210 (AT4G22320) (Arabidopsis thaliana); experiment: TAP-MS, N-terminal GS tag
[23] = molecular target: BSH (Arabidopsis thaliana); experiment: TAP-MS, C-terminal GS tag
[24] = molecular target: DNA-binding bromodomain-containing protein (AT1G20670) (Arabidopsis thaliana); experiment: TAP-MS, C-terminal GS tag
[25] = molecular target: DNA-binding bromodomain-containing protein (AT1G58025) (Arabidopsis thaliana); experiment: TAP-MS, C-terminal GS tag
[26] = molecular target: DNA-binding bromodomain-containing protein, similar to At1g20670 (AT5G55040) (Arabidopsis thaliana); experiment: TAP-MS, C-terminal GS tag
[27] = molecular target: LFR (armadillo-repeat protein) (Arabidopsis thaliana); experiment: TAP-MS, C-terminal GS tag
[28] = molecular target: RD21 (RESPONSIVE TO …ON 21) (Arabidopsis thaliana); experiment: TAP-MS, C-terminal GS tag
[29] = molecular target: SNF2 protein (BRM) (Arabidopsis thaliana); experiment: TAP-MS, C-terminal GS tag
[30] = molecular target: SWI3A (Arabidopsis thaliana); experiment: TAP-MS, C-terminal GS tag
[31] = molecular target: SWI3B (Arabidopsis thaliana); experiment: TAP-MS, C-terminal GS tag
[32] = molecular target: SWI3D (Arabidopsis thaliana); experiment: TAP-MS, C-terminal GS tag
[33] = molecular target: T1, SWIRM domain-containing protein (SWI3C) (Arabidopsis thaliana); experiment: TAP-MS, C-terminal GS tag
[34] = molecular target: T2, actin-related protein 4 (ARP4) (Arabidopsis thaliana); experiment: TAP-MS, C-terminal GS tag
[35] = molecular target: T3, actin-related protein 7 (ARP7) (Arabidopsis thaliana); experiment: TAP-MS, C-terminal GS tag
[36] = molecular target: electron carrier (AT1G32730) (Arabidopsis thaliana); experiment: TAP-MS, C-terminal GS tag
[37] = molecular target: expressed protein, similar to At3g03460 (AT5G17510) (Arabidopsis thaliana); experiment: TAP-MS, C-terminal GS tag
[38] = molecular target: expressed protein, similar to At4g22320 (AT5G55210) (Arabidopsis thaliana); experiment: TAP-MS, C-terminal GS tag
[39] = molecular target: isocitrate dehydrogenase (AT5G03290) (Arabidopsis thaliana); experiment: TAP-MS, C-terminal GS tag
[40] = molecular target: unknown protein (AT1G06500) (Arabidopsis thaliana); experiment: TAP-MS, C-terminal GS tag

N-GS (times co-purified) [1]: 2
N-GS (times co-purified) [2]: 1
N-GS (times co-purified) [3]: 1
N-GS (times co-purified) [4]: 1
N-GS (times co-purified) [5]: 1
N-GS (times co-purified) [6]: 3
N-GS (times co-purified) [7]: 1
N-GS (times co-purified) [8]: 2
N-GS (times co-purified) [9]: 2
N-GS (times co-purified) [10]: 2
N-GS (times co-purified) [11]: 3
N-GS (times co-purified) [12]: 2
N-GS (times co-purified) [13]: 3
N-GS (times co-purified) [14]: 3
N-GS (times co-purified) [15]: 2
N-GS (times co-purified) [16]: 2
N-GS (times co-purified) [17]: 2
N-GS (times co-purified) [18]: 2
N-GS (times co-purified) [19]: 2
N-GS (times co-purified) [20]: 2
N-GS (times co-purified) [21]: 2
N-GS (times co-purified) [22]: 1
Substance: GS-Swp73B

C-GS (times co-purified) [23]: 2
C-GS (times co-purified) [24]: 2
C-GS (times co-purified) [25]: 1
C-GS (times co-purified) [26]: 1
C-GS (times co-purified) [27]: 2
C-GS (times co-purified) [28]: 2
C-GS (times co-purified) [29]: 1
C-GS (times co-purified) [30]: 2
C-GS (times co-purified) [31]: 2
C-GS (times co-purified) [32]: 1
C-GS (times co-purified) [33]: 1
C-GS (times co-purified) [34]: 1
C-GS (times co-purified) [35]: 2
C-GS (times co-purified) [36]: 2
C-GS (times co-purified) [37]: 2
C-GS (times co-purified) [38]: 2
C-GS (times co-purified) [39]: 1
C-GS (times co-purified) [40]: 1
Substance: Swp73B-GS
